Target: T1, Full-length human Tau (MAPT) (human, UniProt P10636-8 1-441)
T1 construct: Tau (MAPT), human, full length; 15N-labelled for the HSQC NMR experiments; also called unmodified Tau; source: E. coli BL21 (DE3), pNG2 vector, purified (boiling, ammonium sulfate, cation exchange, gel filtration)
Assay: NMR titration; 2D 1H-15N HSQC of 24 µM 15N-labelled Tau (or PTau^Cdk2), 5 °C, 25 mM HEPES pH 7.4/100 mM KCl/5 mM MgCl2/1 mM TCEP; chaperones added
Settings: both partners purified

T1 sequence (P10636 other isoform, or with tags, fused parts or gaps): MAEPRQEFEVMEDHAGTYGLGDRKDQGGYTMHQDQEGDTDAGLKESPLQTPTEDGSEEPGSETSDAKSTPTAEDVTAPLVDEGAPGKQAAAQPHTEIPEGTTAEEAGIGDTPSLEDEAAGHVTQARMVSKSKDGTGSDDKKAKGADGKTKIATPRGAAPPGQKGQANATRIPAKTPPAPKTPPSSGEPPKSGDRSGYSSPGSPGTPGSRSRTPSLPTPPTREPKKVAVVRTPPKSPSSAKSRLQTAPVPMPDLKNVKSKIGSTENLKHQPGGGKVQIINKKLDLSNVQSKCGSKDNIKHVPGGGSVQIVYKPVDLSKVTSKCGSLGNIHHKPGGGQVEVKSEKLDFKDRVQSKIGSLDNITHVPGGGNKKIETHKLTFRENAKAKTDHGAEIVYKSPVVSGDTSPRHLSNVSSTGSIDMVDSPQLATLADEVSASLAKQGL

binding result: binds
B1: p23 (PTGES3) (natural protein, human, UniProt Q15185 1-160, looked up)
chain: MQPASAKWYDRRDYVFIEFCVEDSKDVNVNFEKSKLTFSCLGGSDNFKHLNEIDLFHCIDPNDSKHKRTDRSILCCLRKGESGQSWPRLTKERAKLNWLSVDFNNWKDWEDDSDEDMSNFDRFSEMMNNMGGDEDVDLPEVDGADDDSQDSDDEKMPDLE
notes: p23 (PTGES3), human, full-length DNA in pET28a; source: E. coli Rosetta 2 (DE3), purified (Ni-NTA, thrombin cleavage, SEC); not shown: His6, N-terminal, cleaved
